Experimental data from paper PMC7337043.

Biological target: mature Zika virus (ZIKV) virion, icosahedral shell of 180 copies each of the E protein and M protein (Zika virus)
Assay: cryo-EM structure; purified ZIKV virions (10 mM Tris-HCl pH 8.0, 120 mM NaCl, 1 mM EDTA) mixed with purified Fab (15 mM Tris-HCl pH 8, 150 mM NaCl) at E protein:Fab molar ratio 1:2; single particle analysis with icosahedral symmetry, 4.1 Å

B1: Fab of monoclonal antibody ZAb_FLEP (Fab, V domains shown)
VH: EVQLLESGGGLVQPGGSLRLSCAASGFSFSTYSMHWVRQAPGKGLEWVSAISGEGDSAYYADSVKGRFTISRDNSKNTLYLQMNKVRAEDTAVYYCVGGYSNFYYYYTMDAWGQGTMVTVSS
VL: DIVMTQSPASLSLSPGERATLSCRATQSISTFLAWYQQKPGQAPRLLIYDASTRASGIPARFSGSRSGTDFTLTITRLEPEDFAVYYCQQRYNWPPYSFGQGTKLEIK
stoichiometry N (Fab molecules per virion): 120
